Source: article PMC5559466

Target: T1, His6-Sll0649 (OmpR family response regulator) (Synechocystis sp. PCC 6803) (UniProt P72948)
T1 sequence: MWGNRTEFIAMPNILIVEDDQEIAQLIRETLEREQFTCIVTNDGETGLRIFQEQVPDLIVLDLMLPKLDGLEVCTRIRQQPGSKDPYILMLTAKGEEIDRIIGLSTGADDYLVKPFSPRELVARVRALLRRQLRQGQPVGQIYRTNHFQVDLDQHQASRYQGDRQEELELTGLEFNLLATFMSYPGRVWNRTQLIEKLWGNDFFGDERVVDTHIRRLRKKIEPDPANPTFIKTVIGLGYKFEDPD
Assay: EMSA
Conditions: EMSA: 20 mM Tris-base pH 7.9, 1 mM DTT, 10 mM MgCl2, 0.2 mg/mL BSA, 5% glycerol, 1 mg/mL poly(dI-dC), about 10 ng probe, 20 min at 25 C, 6% native PAGE

## AGCCAGTGGCGATAAGTCAGATCCTAGACCCCGACTTTTTTCCAAAATCAGAATAAATACAAAAAAAAGCCCTCTAAAACAATGACCTTGTCCTGAAAAACTGACACAAAAATTTCATACCGTCGTCATAGCCCTGTCATACTCGTCCCCTACATTAATAAATGTCAGCCCAAGCCGTTTCTTATCGCCACTGGCT (double strand) [Pslr1204 EMSA probe]
  binding: no binding
